Nine molecules from patent publication US20260226154A1 (CEPHALON, published 2026) can be followed below.

Substitutions are numbered along the chain they refer to. Names may count otherwise.

The Kd is the free concentration of one partner at which half of the binding sites on the other are occupied at equilibrium, for simple one-to-one binding. A low value points to higher affinity. The koff is the first-order rate constant of dissociation. Low readings indicate slow dissociation, high ones fast dissociation. Usually kon stands for a measure of how fast the partners come together. High values mean faster complex formation, low ones slower complex formation.

The target of assay [1] is T1, PACAP38 (human, not fully specified).
T1 construct: The background says natural PACAP is alpha-amidated
T1 peptide: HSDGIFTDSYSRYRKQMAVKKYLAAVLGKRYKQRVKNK
Kind of assay: SPR (Biacore), 37 C, antibody captured via anti-human Fc, peptide analyte. Here is the method: (§1) In brief, antibody and peptide interaction was determined on a Biacore S200 (GE Healthcare) by method previously described (Andreu and Gomes 2002). An anti-Human IgG Fc capture antibody was immobilized on a CM5 biosensor chip via standard amine coupling. Anti-PACAP antibodies were injected and captured to 200 to 400 response units (RU),). PACAP38, PACAP27 and VIP were diluted in HBS-EP+ buffer containing 0.1% w/v BSA (Bovostar, catalog number BSAS1.0) and 0.15 M NaCl (Sigma-Aldrich catalog number S7653), pH 7.4. Binding kinetics of antibodies were determined by injection of two-fold serial dilutions of PACAPs (12 nm to 0 nM) and VIP (1200 nM to 0 nM) in running buffer at 37° C. with a flow rate of 40 μL/min for 2 min followed by a dissociation for 10 minutes. For subsequent cycles, the chip was regenerated using 0.85% phosphoric acid. Data was analysed with the Biacore S200 Evaluation Software (ver 1.0). Association rate (kₐ) and dissociation rate (kd) constants were determined using a simple one-to-one Langmuir binding model and used to calculate the equilibrium dissociation constant (KD).
A general note: SPR reads the build-up and loss of mass on a sensor chip optically.

In assay [2] the target is T1, PACAP38. The assay can be described thus: cell-based or functional assay.
Assay [3] has as its target T1, PACAP38. Kind of assay: cell-based or functional assay.
The target of assay [4] is T1, PACAP38. Kind of assay: SPR (Biacore S200) off-rate ranking, antibody captured from supernatant, single injection of 33.3 nM PACAP38. As for the experimental part: as §1, with “Binding kinetics of antibodies were determined by injection of two-fold serial dilutions of PACAPs (12 nm to 0 nM) and VIP (1200 nM to 0 nM) in running buffer at 37° C. with a flow rate of 40 μL/min for 2 min followed by a dissociation for 10 minutes.” left out

Assay [5] has as its target T2, VIP (human).
T2 construct: also called vasoactive intestinal peptide
T2 peptide: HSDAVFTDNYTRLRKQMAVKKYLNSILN
The assay can be described thus: SPR (Biacore S200), 37 C, captured antibody, steady state affinity. Here is the method:
as §1
(§2) Due to very fast on-rate and off-rate with VIP, binding affinity at steady state was used.

Assay [6] addresses T1, PACAP38. The assay can be described thus: SPR (Biacore S200), 37 C, captured antibody, peptide dilution series, 1:1 Langmuir fit. As for the experimental part:
as §1, §2

Assay [7] addresses T3, PACAP27 (human, not fully specified).
T3 peptide: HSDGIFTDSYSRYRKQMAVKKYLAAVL
The assay is described as above. As for the experimental part:
as §1, §2

B1: 917B (antibody, V domains shown)
VH: EVQLVQSGAEVKKPGSSVKVSCKASGGTFSDSYMHWVRQAPGQGLEWMGLIYPIFADTRYAQKFQGRVTITADESTSTAYMELSSLRSEDTAVYYCAIDQDGSFAYWGQGTLVTVSS
VL: DIVMTQSPDSLAVSLGERATINCKSSQSLLDSDGKTYLNWLQQKPGQPPKRLIYLVSTRESGVPDRFSGSGSGTDFTLTISSLQAEDVAVYYCWQGTWFDLTFGGGTKVEIK
notes: Humanized anti-PACAP variant
In assay [1], B1 gave a Kd of 0.00969 nM, a koff of 0.000122 s⁻¹ and a kon of 1.26e+07 M⁻¹ s⁻¹. Also, in assay [2], the “IC50 (nM), PACAP-induced cAMP accumulation, CHO-K1 cells, cAMP-Glo” value (“IC50 (nM)” below) is 0.19 nM. Besides, the “PACAP-38 IC50” value in assay [3] stood at 0.19 nM.

B2: 524C (antibody, V domains shown)
VH: B1 VH with T58Q, G102A
VL: B1 VL
notes: LC S(27E), G29, L50, V51, K53T, L54R, D55E, H93W, P95D
Take B2: in assay [1], the dissociation constant Kd is 0.035 nM, the koff is 0.000546 s⁻¹ and the kon worked out at 1.56e+07 M⁻¹ s⁻¹. Also, in assay [3], the “PACAP-38 IC50” value is 0.36 nM.

B3: 609C (antibody, V domains shown)
VH: B1 VH with S32L
VL: DIVMTQSPDSLAVSLGERATINCKSSQSLLDADGKTYLNWLQQKPGQPPKRLIYWASTRESGVPDRFSGSGSGTDFTLTISSLQAEDVAVYYCWQGTWFDLTFGGGTKVEIKR
In the case of B3, in assay [1], binding was put at a Kd of 0.0228 nM, the koff came out at 0.00118 s⁻¹ and the kon came out at 5.17e+07 M⁻¹ s⁻¹. In assay [2], the “IC50 (nM)” value came out at 0.83 nM. Moreover, in assay [4], binding was put at a Kd of 0.0228 nM, the koff amounted to 0.00118 s⁻¹ and the on-rate (kon) turned out to be 5.17e+07 M⁻¹ s⁻¹. The “PACAP-38 IC50” value in assay [3] stood at 0.83 nM.

B4: 627C (antibody, V domains shown)
VH: B1 VH with S32V
VL: B3 VL with A32S
In assay [1], B4 gave a Kd of 0.0376 nM, a koff of 0.000789 s⁻¹ and a kon of 2.1e+07 M⁻¹ s⁻¹. Also, in assay [2], the “IC50 (nM)” value is 0.4 nM. In assay [4], this molecule had a Kd of 0.0376 nM, a dissociation rate constant (koff) of 0.000789 s⁻¹ and a kon of 2.1e+07 M⁻¹ s⁻¹. Further, the “PACAP-38 IC50” value in assay [3] stood at 0.4 nM.

B5: 608C (antibody, V domains shown)
VH: B1 VH with S32L
VL: B3 VL with A32S
In assay [1], B5 showed a Kd of 0.0284 nM, a koff of 0.00204 s⁻¹ and a kon of 7.19e+07 M⁻¹ s⁻¹. Also, in assay [2], the “IC50 (nM)” value worked out at 0.7 nM. In assay [4], this molecule had a Kd of 0.0284 nM, a koff of 0.00204 s⁻¹ and a kon of 7.19e+07 M⁻¹ s⁻¹. Further, in assay [3], the “PACAP-38 IC50” value stood at 0.7 nM.

B6: 919A (antibody, V domains shown)
VH: B1 VH with Q100Y
VL: B1 VL with W98H, D100P
notes: Humanized anti-PACAP variant
In assay [1], B6 showed a Kd of 0.0866 nM, a koff of 0.00584 s⁻¹ and a kon of 6.75e+07 M⁻¹ s⁻¹. Besides, the “PACAP-38 IC50” value in assay [3] was 1.3 nM.

B7: 605C (antibody, V domains shown)
VH: B1 VH
VL: B1 VL with S32A, L55W, V56A
Turning to B7, the Kd in assay [1] was determined as 0.017 nM; in assay [4] it was 0.017 nM; in assay [5], 225 nM; in assay [6] it was 0.0328 nM; in assay [7], 0.154 nM. For the same molecule, the koff in assay [1] came to 0.000566 s⁻¹; in assay [4] it was 0.000566 s⁻¹; in assay [6], 0.000565 s⁻¹; in assay [7], 0.00101 s⁻¹. In addition, the kon in assay [1] is 3.33e+07 M⁻¹ s⁻¹; in assay [4], 3.33e+07 M⁻¹ s⁻¹; in assay [6] it was 1.72e+07 M⁻¹ s⁻¹; in assay [7] it was 6.58e+06 M⁻¹ s⁻¹. In addition, the “PACAP-38 IC50” value in assay [3] came to 0.15 nM.

B8: 519C (antibody, V domains shown)
VH: B1 VH with S32L
VL: B1 VL
notes: as for B2
Regarding B8, in assay [1], the Kd came out at 0.0218 nM, the koff came out at 0.000483 s⁻¹ and the on-rate (kon) came to 2.22e+07 M⁻¹ s⁻¹. Also, in assay [3], the “PACAP-38 IC50” value worked out at 0.27 nM.

B9: 604C (antibody, V domains shown)
VH: B1 VH
VL: B1 VL with L55W, V56A
In assay [1], B9 gave a Kd of 0.0197 nM, a koff of 0.000319 s⁻¹ and a kon of 1.62e+07 M⁻¹ s⁻¹. In assay [4], this molecule returned a Kd of 0.0197 nM, a koff of 0.000319 s⁻¹ and a kon of 1.62e+07 M⁻¹ s⁻¹. For the same molecule, the “PACAP-38 IC50” value in assay [3] stood at 0.16 nM.
